Where two headings read alike, the source gives them in different places.
Assays:
IL-28RA mRNA = test: Semi-quantitative RT-PCR of IL-28RA, IFNAR2 and CRF2-4 mRNA; type: cell-based, human; settings: HepG2 cells + cytokine
Method: In order to further examine the mRNA distribution for IL-28RA, semi-quantitative RT-PCR was performed using the SDS 7900HT system (Applied Biosystems, CA). One-step RT-PCR was performed using 100 ng total RNA for each sample and gene-specific primers. A standard curve was generated for each primer set using Bjab RNA and all sample values were normalized to HPRT. The normalized values for IFNAR2 and CRF2-4 are also shown.

HCV replicon = settings: replicon clones; IFNα at 10 IU/ml; cited from earlier work
[1] = system: human peripheral blood mononuclear cells; test: Induction of IL-28A, IL-29, IL-28B RNA in PBMCs by poly I:C and viral infection; settings: poly I:C 100 μg/ml, 15 h
Human Daudi cells = test: Daudi cell proliferation (Alamar Blue); type: cell-based; settings: 1000 ng/ml to 0.5 ng/ml; 72 h
Method: Human Daudi cells were suspended in RPMI+10% FBS at 50,000 cells/milliliter and 5000 cells were plated per well in a 96 well plate. […] IL-29-CEE was used at a concentration range of from 1000 ng/ml to 0.5 ng/ml. […] IFN-α2a was used at a concentration range of from 62 ng/ml to 0.03 ng/ml. Cells were incubated for 72 h at 37° C. […] Plates were farther incubated at 37° C., 5% CO2, for 24 hours.

[2] = system: encephelomyocarditis virus; test: Antiviral assay: cytopathic effect in HeLa cells; type: cell-based, human
[3] = system: encephelomyocarditis virus; test: Antiviral assay: cytopathic effect in L929 cells; type: cell-based, mouse
[4] = system: human Daudi B lymphoid cells; test: Induction of interferon-stimulated genes in Daudi cells (RT-PCR); type: cell-based; settings: 72 hours, conditioned medium from Sf9 cells
Text: Interaction of type 1 interferons with their specific receptor leads to induction of a number of genes responsible for their antiviral/antiproliferative activity. These include 2′-5′ oligoadenylate synthetase (2-OAS), double-stranded RNA dependent Pkr kinase (Pkr), phospholipid scramblase, and intercellular adhesion molecule-1 (ICAM-1). Induction of genes with as yet unknown function, such as a 56 kDa interferon stimulated gene product (ISG-56k), also occurs. […] Conditioned medium from Sf9 cells infected with wild-type baculovirus was used as a negative control. Following treatment cells were collected and lysed for isolation of total RNA. One microgram of total RNA was converted to cDNA using reverse transcriptase and used as a template for polymerase chain reaction using oligonucleotide primers specific for the human interferon-stimulated genes described above. Oligonucleotide primers for human […] (G3PDH) were used as a non-interferon stimulated gene control.

BVDV = BVDV CPE inhibition assay in MDBK cells; type: cell-based; settings: MDBK bovine kidney cells
Method: IFNα and RIBAVIRIN® were used as positive controls. Test sample were added at the time of viral infection.

[5] = system: ISG gene expression (OAS, Pkr, Mx1); test: ISG gene induction in liver, spleen and blood of injected mice; type: in vivo, mouse; settings: C57BL/6 mice; i.p or i.v; 10 μg-250 μg
Method: In addition, E. coli derived IL-29 was also tested in in vivo assays as described above using MetIL-29C172S-PEG and MetIL-29-PEG. At various time points and at different doses, ISG gene induction was measured in the blood, spleen and livers of the mice.
Mice were sacrificed at various time points (1 hr-48 hr). Spleens and livers were isolated from mice, and RNA was isolated. RNA was also isolated from the blood cells. The cells were pelleted and RNA isolated from pellets using RNAEasy®-kit (Qiagen). RNA was treated with DNase (Amicon) to rid RNA of any contaminating DNA. cDNA was generated using Perkin-Elmer RT mix (Perkin-Elmer). ISG gene induction was measured by real-time PCR using primers and probes specific for mouse OAS, Pkr and M×1. To obtain quantitative data, HPRT real-time PCR was duplexed with ISG PCR. A standard curve was calculated using known amounts of IFN-stimulated mouse PBLs. All data are shown as expression relative to internal HPRT expression.
Results shown are fold expression relative to HPRT gene expression. […] The data shown is the average expression from 5 different animals/group.
Data shown is fold expression over HPRT expression from livers of mice. Similar data was obtained from blood and spleens of mice.

adenovirus [6] = type: cell-based; settings: A549 cells
parainfluenza virus [7] = type: cell-based; settings: MA-104 cells
[8] = system: respiratory syncytial virus; type: cell-based; settings: MA-104 cells
rhino virus [9] = type: cell-based
coxsackie virus [10] = type: cell-based; settings: Coxsackie B4 virus, KB cells
influenza virus [11] = type: cell-based; settings: Influenza (type A [H3N2])
vaccinia virus [12] = type: cell-based; settings: Vero cells
west nile virus [13] = type: cell-based; settings: Vero cells
dengue virus [14] = type: cell-based; settings: Vero cells
[15] = system: venezuelan equine encephalitis virus; type: cell-based; settings: Vero cells
pichinde virus [16] = type: cell-based
polio virus [17] = type: cell-based; settings: Vero cells
adenovirus [18] = type: cell-based; settings: A549 cells; remark: listed apart in the source
parainfluenza virus [19] = type: cell-based; settings: MA-104 cells; remark: listed apart in the source
[20] = system: respiratory syncytial virus; type: cell-based; settings: MA-104 cells; remark: listed apart in the source
rhino virus [21] = type: cell-based; remark: listed apart in the source
coxsackie virus [22] = type: cell-based; settings: Coxsackie B4 virus, KB cells; remark: listed apart in the source
influenza virus [23] = type: cell-based; settings: Influenza (type A [H3N2]); remark: listed apart in the source
vaccinia virus [24] = type: cell-based; settings: Vero cells; remark: listed apart in the source
west nile virus [25] = type: cell-based; settings: Vero cells; remark: listed apart in the source
dengue virus [26] = type: cell-based; settings: Vero cells; remark: listed apart in the source
[27] = system: venezuelan equine encephalitis virus; type: cell-based; settings: Vero cells; remark: listed apart in the source
pichinde virus [28] = type: cell-based; remark: listed apart in the source
polio virus [29] = type: cell-based; settings: Vero cells; remark: listed apart in the source
OAS = OAS activity in serum and plasma of mice (RIA); settings: C57BL/6 mice; i.v; 10 μg-250 μg
HHV-8 = HHV-8 replication in BCBL-1 cells (TaqMan PCR)
[30] = Maden-Darby Canine Kidney cells

Molecule: IFNα [reference compound]
- CRF2-4 mRNA normalized to HPRT (IL-28RA mRNA): 3.05
- IFNAR2 mRNA normalized to HPRT (IL-28RA mRNA): 3.00
- IL-28RA mRNA normalized to HPRT (IL-28RA mRNA): 2.61
- reduction of the amount of HCV RNA compared to untreated control cell lines (HCV replicon): 85%

Molecule: polyinosinic acid-polycytidylic acid [poly I:C]
- amount of IL-28A, IL-29, IL-28B RNA [1]: increased

Molecule: IL-29-CEE: IL-29 conjugated with glu tag
- effect on proliferation of Daudi cells (Human Daudi cells): no significant effect

B1: IL-28A: human IL-28A, previously designated zcyto20, SEQ ID NO:2 (protein, listed as Homo sapiens)
chain: MKLDMTGDCTPVLVLMAAVLTVTGAVPVARLHGALPDARGCHIAQFKSLSPQELQAFKRAKDALEESLLLKDCRCHSRLFPRTWDLRQLQVRERPMALEAELALTLKVLEATADTDPALVDVLDQPLHTLHHILSQFRACIQPQPTAGPRTRGRLHHWLYRLQEAPKKESPGCLEASVTFNLFRLLTRDLNCVASGDLCV
modifications: SIGNAL (1)...(25)
- Percentage Cytopathic Effect ([2]; relative CM concentration .008X): 10%
- Percentage Cytopathic Effect ([2]; relative CM concentration .0156X): 2.5%
- Percentage Cytopathic Effect ([2]; relative CM concentration .0325X): 5%
- Percentage Cytopathic Effect ([2]; relative CM concentration .0625X): 2.5%
- Percentage Cytopathic Effect ([2]; relative CM concentration .125X): 0%
- Percentage Cytopathic Effect ([2]; relative CM concentration .25X): 0%
- Percentage Cytopathic Effect ([2]; relative CM concentration .5X): 0%
- Percentage Cytopathic Effect ([3]; relative CM conc. .008X): 87%
- Percentage Cytopathic Effect ([3]; relative CM conc. .0156X): 87%
- Percentage Cytopathic Effect ([3]; relative CM conc. .0325X): 87%
- Percentage Cytopathic Effect ([3]; relative CM conc. .0625X): 87%
- Percentage Cytopathic Effect ([3]; relative CM conc. .125X): 87%
- Percentage Cytopathic Effect ([3]; relative CM conc. .25X): 87%
- Percentage Cytopathic Effect ([3]; relative CM conc. .5X): 87%
- induction of ICAM-1 [4]: No induction
- induction of ISG-56k, Pkr, 2-5 OAS and phospholipid scramblase [4]: clear induction
- IC50 inhibition of cell death induced by BVDV (BVDV): 0.02 µg/mL
- ISG gene expression (OAS, Pkr, Mx1) in the livers, spleen and blood of mice [5]: did not induce ISG gene expression
- EC50 Visual (adenovirus [6]): >10 µg/mL
- IC50 Visual (adenovirus [6]): >10 µg/mL
- EC50 Visual (parainfluenza virus [7]): >10 µg/mL
- IC50 Visual (parainfluenza virus [7]): >10 µg/mL
- EC50 Visual [8]: >10 µg/mL
- IC50 Visual [8]: >10 µg/mL
- EC50 Visual (rhino virus [9]; Rhino 2, KB cells): >10 µg/mL
- IC50 Visual (rhino virus [9]; Rhino 2, KB cells): >10 µg/mL
- EC50 Visual (rhino virus [9]; Rhino 9, HeLa cells): >10 µg/mL
- IC50 Visual (rhino virus [9]; Rhino 9, HeLa cells): >10 µg/mL
- EC50 Visual (coxsackie virus [10]): >10 µg/mL
- IC50 Visual (coxsackie virus [10]): >10 µg/mL
- EC50 Visual (influenza virus [11]; [30]): >10 µg/mL
- IC50 Visual (influenza virus [11]; [30]): >10 µg/mL
- EC50 Visual (influenza virus [11]; Vero cells): 0.1 µg/mL
- IC50 Visual (influenza virus [11]; Vero cells): >10 µg/mL
- EC50 Visual (vaccinia virus [12]): >10 µg/mL
- IC50 Visual (vaccinia virus [12]): >10 µg/mL
- EC50 Visual (west nile virus [13]): 0.01 ng/mL
- IC50 Visual (west nile virus [13]): >10 µg/mL
- EC50 Visual (dengue virus [14]): 0.01 µg/mL
- IC50 Visual (dengue virus [14]): >10 µg/mL
- EC50 Visual [15]: 0.01 µg/mL
- IC50 Visual [15]: >10 µg/mL
- EC50 Visual (pichinde virus [16]): >10 µg/mL
- IC50 Visual (pichinde virus [16]): >10 µg/mL
- EC50 Visual (polio virus [17]): >10 µg/mL
- IC50 Visual (polio virus [17]): >10 µg/mL
- EC50 NR (adenovirus [18]): >10 µg/mL
- IC50 NR (adenovirus [18]): >10 µg/mL
- EC50 NR (parainfluenza virus [19]): >10 µg/mL
- IC50 NR (parainfluenza virus [19]): >10 µg/mL
- EC50 NR [20]: >10 µg/mL
- IC50 NR [20]: >10 µg/mL
- EC50 NR (rhino virus [21]; Rhino 2, KB cells): >10 µg/mL
- IC50 NR (rhino virus [21]; Rhino 2, KB cells): >10 µg/mL
- EC50 NR (rhino virus [21]; Rhino 9, HeLa cells): 1.726 µg/mL
- IC50 NR (rhino virus [21]; Rhino 9, HeLa cells): >10 µg/mL
- EC50 NR (coxsackie virus [22]): >10 µg/mL
- IC50 NR (coxsackie virus [22]): >10 µg/mL
- EC50 NR (influenza virus [23]; [30]): >10 µg/mL
- IC50 NR (influenza virus [23]; [30]): >10 µg/mL
- EC50 NR (influenza virus [23]; Vero cells): 0.25 µg/mL
- IC50 NR (influenza virus [23]; Vero cells): >10 µg/mL
- EC50 NR (vaccinia virus [24]): >10 µg/mL
- IC50 NR (vaccinia virus [24]): >10 µg/mL
- EC50 NR (west nile virus [25]): 0.1 ng/mL
- IC50 NR (west nile virus [25]): >10 µg/mL
- EC50 NR (dengue virus [26]): 0.1 µg/mL
- IC50 NR (dengue virus [26]): >10 µg/mL
- EC50 NR [27]: 0.035 µg/mL
- IC50 NR [27]: >10 µg/mL
- EC50 NR (pichinde virus [28]): >10 µg/mL
- IC50 NR (pichinde virus [28]): >10 µg/mL
- EC50 NR (polio virus [29]): >1.672 µg/mL
- IC50 NR (polio virus [29]): >10 µg/mL
- TC50 (BCBL-1 cells): > 10 µg/mL
- OAS activity in the serum and plasma of mice (OAS): induced OAS activity
- TI (TC50/IC50) (HHV-8): > 10
- IC50 HHV-8 viral replication (HHV-8; extracellular HHV-8 DNA): 1 µg/mL
